What was measured:
[1] = tested on: GACΔC, C-terminal truncation mutant of mouse glutaminase C
[2] = tested on: V5-tagged wild-type mouse glutaminase C (GAC)
[3] = tested on: GAC (S103A), phospho-defective mutant of mouse glutaminase C
Sequence of GAC (S103A), phospho-defective mutant of mouse glutaminase C (chain, as listed by the source S103A): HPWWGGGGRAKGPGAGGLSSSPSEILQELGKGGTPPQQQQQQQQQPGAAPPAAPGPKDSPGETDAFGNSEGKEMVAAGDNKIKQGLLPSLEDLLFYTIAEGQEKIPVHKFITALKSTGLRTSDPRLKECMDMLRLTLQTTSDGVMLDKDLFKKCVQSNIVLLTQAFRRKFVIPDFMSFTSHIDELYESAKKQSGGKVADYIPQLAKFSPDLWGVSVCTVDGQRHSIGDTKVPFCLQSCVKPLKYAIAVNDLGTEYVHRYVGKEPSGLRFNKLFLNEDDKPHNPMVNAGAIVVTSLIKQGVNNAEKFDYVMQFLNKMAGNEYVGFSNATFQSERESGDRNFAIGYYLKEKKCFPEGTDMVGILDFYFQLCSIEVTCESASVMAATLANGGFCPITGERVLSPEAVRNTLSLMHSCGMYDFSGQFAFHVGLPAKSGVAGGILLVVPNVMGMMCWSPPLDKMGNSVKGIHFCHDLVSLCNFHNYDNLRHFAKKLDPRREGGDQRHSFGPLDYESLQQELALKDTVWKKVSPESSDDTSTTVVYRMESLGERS

Sequence of V5-tagged wild-type mouse glutaminase C (GAC) (chain, as listed by the source): as the sequence (chain, as listed by the source S103A) above, with A49S counted along it
Sequence of GACΔC, C-terminal truncation mutant of mouse glutaminase C (chain, as listed by the source mutant): as the sequence (chain, as listed by the source S103A) above, with A49S counted along it

## mTOR (mammalian target of rapamycin)
[1]
  phosphorylation of proteins immunoprecipitated with GAC after addition of radio-labeled ATP under conditions favorable for the activation of the mTOR kinase: the phosphorylation of proteins immunoprecipitated with wild-type GAC and GACΔC is observed
[2]
  phosphorylation of proteins immunoprecipitated with GAC after addition of radio-labeled ATP under conditions favorable for the activation of the mTOR kinase: the phosphorylation of proteins immunoprecipitated with wild-type GAC and GACΔC is observed
[3]
  phosphorylation of proteins immunoprecipitated with GAC after addition of radio-labeled ATP under conditions favorable for the activation of the mTOR kinase: but not for proteins immunoprecipitated with GAC (S103A)

Source: US20130252983
